Experimental findings from US20140370026A1 (TRUSTEES OF PRINCETON UNIVERSITY, published 2014) are described below.

To fix the notation:
B2: human CMV glycoprotein gO (UL74-coded) (other)
chain: KVMSKALYNRPWRGLVLSKIGKYKLDQLKLEILRQLETTISTKYNVSKQPVKNLTMNMTEFPQYYILAGPIQNYSITYLWFDFYSTQLRKPAKYVYSQYNHTAKTITFRPPPCGTVPSMTCLSEMLNVSKRNDTGEQGCGNFTTFNPMFFNVPRWNTKLYVGPTKVNVDSQTIYFLGLTALLLRYAQRNCTHSFYLVNAMSRNLFRVPKYINGTKLKNTMRKLKRKQAPVKEQFEKKAKKTQSTTTPYFSYTTSAALNVTTNVTYSITTAARRVSTSTIAYRPDSSFMKSIMATQLRDLATWVYTTLRYRQNPFCEPSRNRTAVSEFMKNTHVLIRNETPYTIYGTLDMSSLYYNETMFVENKTASDSNKTTPTSPSMGFQRTFIDPLWDYLDSLLFLDEIRNFSLRSPTYVNLTPPEHRRAVNLSTLNSLWWWLQ

The target of experiment [1] is T1, human CMV glycoprotein gM (UL100-coded) (human CMV, UniProt P16733 1-372).
T1 sequence: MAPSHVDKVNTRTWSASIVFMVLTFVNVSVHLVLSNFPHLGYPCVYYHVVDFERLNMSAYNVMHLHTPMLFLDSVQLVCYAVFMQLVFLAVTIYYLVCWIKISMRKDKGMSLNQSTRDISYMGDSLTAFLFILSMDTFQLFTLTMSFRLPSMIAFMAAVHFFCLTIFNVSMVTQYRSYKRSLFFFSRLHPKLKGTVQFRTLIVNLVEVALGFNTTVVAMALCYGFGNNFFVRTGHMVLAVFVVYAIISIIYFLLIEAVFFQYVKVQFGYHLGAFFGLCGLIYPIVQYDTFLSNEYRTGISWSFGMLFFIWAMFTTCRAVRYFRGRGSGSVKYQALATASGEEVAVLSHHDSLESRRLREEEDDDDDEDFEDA
Put plainly: co-immunoprecipitation with anti-gM IMP91-3/1.

The target in experiment [2] is human CMV glycoprotein gH (UL75-coded) (human CMV, UniProt P12824 24-743). Put plainly: co-immunoprecipitation with anti-gH 14-4b.
A further experiment addresses T2, human CMV pUL130 (human CMV, UniProt P16772 26-214).
T2 construct: also called UL130 protein; 33- to 35-kDa protein
The experiment in a line: co-immunoprecipitation with anti-gO from radiolabeled infected MRC-5 lysates (FIG. 3A).

Experiment [3] addresses B2. The experiment is described as above.

B1: human CMV glycoprotein gN (UL73-coded) (other)
chain: NNSSTSTSATTSKSSASVSTTKLTTVATTSATTTTTTTLSTTSTKLSSTTHDPNVMRRHANDDFYKAHCTSHMYELSLSSFAAWWTMLNALILMGAFCIVLRHCCFQNFTATTTKGY
notes: also called ~60-kDa protein
On to B1, for which the binding result in experiment [1] is on record as “binds”. B2: the values for the binding result (in experiment [2]; in the experiment with human CMV pUL130) were “binds” and “no binding”, respectively.

B3: human CMV pUL128 (other)
chain: EECCEFINVNHPPERCYDFKMCNRFTVALRCPDGEVCYSPEKTAEIRGIVTTMTHSLTRQVVHNKLTSCNYNPLYLEADGRIRCGKVNDKAQYLLGAAGSVPYRWINLEYDKITRIVGLDQYLESVKKHKRLDVCRAKMGYMLQ
notes: also called UL128 protein; 16-kDa protein
For the molecule B3, the binding result in experiment [3] is “no binding”.
